Results as given in article PMC9482650, “Quantitative fragmentomics allow affinity mapping of interactomes” (Nature Communications, 2022).

T1: FRMPD1, Q5SYB0
T1 sequence (Q5SYB0 52-145, limits assumed, looked up): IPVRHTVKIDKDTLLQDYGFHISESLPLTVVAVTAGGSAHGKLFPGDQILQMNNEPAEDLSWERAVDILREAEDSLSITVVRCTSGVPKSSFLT

T2: DFNB31_2, Q9P202
T2 sequence (Q9P202 274-371, limits assumed, looked up): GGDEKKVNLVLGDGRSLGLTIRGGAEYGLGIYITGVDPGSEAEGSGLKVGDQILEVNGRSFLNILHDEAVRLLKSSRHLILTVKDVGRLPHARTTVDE

T3: LRRC7, Q96NW7
T3 sequence (Q96NW7 1440-1537, limits assumed, looked up): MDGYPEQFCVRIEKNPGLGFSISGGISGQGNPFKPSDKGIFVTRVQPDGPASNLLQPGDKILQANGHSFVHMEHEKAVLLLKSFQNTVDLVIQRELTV

T4: MPP7, Q5T2T1
T4 sequence (Q5T2T1 134-230, limits assumed, looked up): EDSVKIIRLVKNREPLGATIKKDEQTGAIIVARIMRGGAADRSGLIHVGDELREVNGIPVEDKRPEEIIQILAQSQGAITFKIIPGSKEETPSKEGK

T5: HTRA3, P83110
T5 sequence (P83110 354-453, limits assumed, looked up): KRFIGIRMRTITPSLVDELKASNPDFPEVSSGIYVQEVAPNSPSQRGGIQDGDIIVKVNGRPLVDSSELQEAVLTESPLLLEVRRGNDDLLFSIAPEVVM

T6: SNTB1, Q13884
T6 sequence (Q13884 107-205, limits assumed, looked up): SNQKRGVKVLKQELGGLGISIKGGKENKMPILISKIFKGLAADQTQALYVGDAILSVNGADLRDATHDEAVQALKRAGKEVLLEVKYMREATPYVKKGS

T7: ARHGAP21, Q5T5U3
T7 sequence (Q5T5U3 45-169, limits assumed, looked up): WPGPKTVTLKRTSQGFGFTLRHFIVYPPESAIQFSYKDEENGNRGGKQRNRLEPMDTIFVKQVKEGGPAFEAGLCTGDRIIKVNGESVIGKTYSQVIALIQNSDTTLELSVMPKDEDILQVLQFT

T8: RHPN1, Q8TCX5
T8 sequence (Q8TCX5 508-602, limits assumed, looked up): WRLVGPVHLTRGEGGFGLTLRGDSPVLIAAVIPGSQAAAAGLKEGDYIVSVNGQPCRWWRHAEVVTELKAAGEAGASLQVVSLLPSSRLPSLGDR

T9: MPDZ_5, O75970
T9 sequence (O75970 695-796, limits assumed, looked up): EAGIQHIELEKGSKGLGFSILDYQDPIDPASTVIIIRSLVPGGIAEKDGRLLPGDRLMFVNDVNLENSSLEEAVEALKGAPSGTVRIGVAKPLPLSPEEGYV

T10: MPDZ_10, O75970
T10 sequence (O75970 1624-1722, limits assumed, looked up): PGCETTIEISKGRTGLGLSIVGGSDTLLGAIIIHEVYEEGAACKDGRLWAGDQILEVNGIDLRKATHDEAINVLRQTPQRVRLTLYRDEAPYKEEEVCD

T11: PDZRN3_1, Q9UPQ7
T11 sequence (Q9UPQ7 244-349, limits assumed, looked up): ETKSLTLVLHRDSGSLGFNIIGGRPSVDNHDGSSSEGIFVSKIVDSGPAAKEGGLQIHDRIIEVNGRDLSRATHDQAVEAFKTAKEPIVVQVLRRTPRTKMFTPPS

B1: HNRNPK, P61978;P61978-2 (peptide)
chain: VKQYADVEGF
B2: PALLS, Q8WX93;Q8WX93-1 (peptide)
chain: NTALVESEDL
B3: SLC26A3, P40879 (peptide)
chain: VYEVPVETKF

target: SCRIB_1, Q14160; experiment: holdup assay; set-up: key: below the threshold = too weak to quantify, mostly under pKd 3.1 to 4; settings: plain residues with an end cap or a label only (N-terminal biotin on a linker: ado-ado)
Sequence (Q14160 718-814): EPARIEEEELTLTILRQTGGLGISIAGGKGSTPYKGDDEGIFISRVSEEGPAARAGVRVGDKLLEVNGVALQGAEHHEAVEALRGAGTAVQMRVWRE

Binder | pKd
B1 | below the threshold
B2 | below the threshold
B3 | 4.18

target: NHERF4_1, Q86UT5-2; experiment: holdup assay; set-up: key: below the threshold = too weak to quantify, mostly under pKd 3.1 to 4; settings: plain residues with an end cap or a label only (N-terminal biotin on a linker: ado-ado)
Sequence (Q86UT5 other isoform, or with tags, fused parts or gaps): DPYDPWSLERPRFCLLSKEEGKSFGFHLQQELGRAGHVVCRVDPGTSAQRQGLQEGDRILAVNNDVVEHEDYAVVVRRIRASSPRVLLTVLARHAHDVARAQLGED

Binder | pKd
B1 | 3.99
B2 | below the threshold
B3 | 3.67

target: Inadl_4, Q8NI35; experiment: holdup assay; set-up: key: below the threshold = too weak to quantify, mostly under pKd 3.1 to 4; settings: plain residues with an end cap or a label only (N-terminal biotin on a linker: ado-ado)
Sequence (Q8NI35 547-651): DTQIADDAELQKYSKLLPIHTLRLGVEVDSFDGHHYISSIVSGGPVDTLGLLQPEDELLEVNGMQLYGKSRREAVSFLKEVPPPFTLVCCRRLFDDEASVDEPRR

Binder | pKd
B1 | below the threshold
B2 | below the threshold
B3 | below the threshold

target: DLG4_1, P78352; experiment: holdup assay; set-up: key: below the threshold = too weak to quantify, mostly under pKd 3.1 to 4; settings: plain residues with an end cap or a label only (N-terminal biotin on a linker: ado-ado)
Sequence (P78352 62-152): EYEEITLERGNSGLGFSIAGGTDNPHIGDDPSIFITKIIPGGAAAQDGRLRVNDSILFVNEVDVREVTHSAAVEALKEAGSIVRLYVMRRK

Binder | pKd
B1 | below the threshold
B2 | below the threshold
B3 | below the threshold

target: SCRIB_3, Q14160; experiment: holdup assay; set-up: key: below the threshold = too weak to quantify, mostly under pKd 3.1 to 4; settings: plain residues with an end cap or a label only (N-terminal biotin on a linker: ado-ado)
Sequence (Q14160 999-1103): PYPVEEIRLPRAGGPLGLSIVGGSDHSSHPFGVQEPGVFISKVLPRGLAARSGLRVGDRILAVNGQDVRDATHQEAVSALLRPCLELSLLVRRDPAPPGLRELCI

Binder | pKd
B1 | below the threshold
B3 | 4.44

target: TJP1_2, Q07157; experiment: holdup assay; set-up: key: below the threshold = too weak to quantify, mostly under pKd 3.1 to 4; settings: plain residues with an end cap or a label only (N-terminal biotin on a linker: ado-ado)
Sequence (Q07157 181-274): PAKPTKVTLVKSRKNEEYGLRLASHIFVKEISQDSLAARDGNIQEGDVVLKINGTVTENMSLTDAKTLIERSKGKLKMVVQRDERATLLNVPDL

Binder | pKd
B1 | below the threshold
B2 | below the threshold
B3 | below the threshold

target: T1, FRMPD1, Q5SYB0; experiment: holdup assay; set-up: key: below the threshold = too weak to quantify, mostly under pKd 3.1 to 4; settings: plain residues with an end cap or a label only (N-terminal biotin on a linker: ado-ado)

Binder | pKd
B1 | below the threshold
B2 | below the threshold
B3 | below the threshold

target: PDLIM1, O00151; experiment: holdup assay; set-up: key: below the threshold = too weak to quantify, mostly under pKd 3.1 to 4; settings: plain residues with an end cap or a label only (N-terminal biotin on a linker: ado-ado)
Sequence (O00151 1-87): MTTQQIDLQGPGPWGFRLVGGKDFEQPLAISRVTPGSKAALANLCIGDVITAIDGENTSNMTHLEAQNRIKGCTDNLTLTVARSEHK

Binder | pKd
B1 | below the threshold
B2 | 5.47
B3 | below the threshold

target: T2, DFNB31_2, Q9P202; experiment: holdup assay; set-up: key: below the threshold = too weak to quantify, mostly under pKd 3.1 to 4; settings: plain residues with an end cap or a label only (N-terminal biotin on a linker: ado-ado)

Binder | pKd
B1 | below the threshold
B2 | below the threshold
B3 | below the threshold

target: T3, LRRC7, Q96NW7; experiment: holdup assay; set-up: key: below the threshold = too weak to quantify, mostly under pKd 3.1 to 4; settings: plain residues with an end cap or a label only (N-terminal biotin on a linker: ado-ado)

Binder | pKd
B1 | below the threshold
B2 | below the threshold
B3 | below the threshold

target: Inadl_1, Q8NI35; experiment: holdup assay; set-up: key: below the threshold = too weak to quantify, mostly under pKd 3.1 to 4; settings: plain residues with an end cap or a label only (N-terminal biotin on a linker: ado-ado)
Sequence (Q8NI35 113-229): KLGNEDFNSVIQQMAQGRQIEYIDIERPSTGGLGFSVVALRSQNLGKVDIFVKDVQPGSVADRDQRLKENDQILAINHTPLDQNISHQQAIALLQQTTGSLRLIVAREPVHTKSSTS

Binder | pKd
B1 | below the threshold
B2 | below the threshold
B3 | below the threshold

target: T4, MPP7, Q5T2T1; experiment: holdup assay; set-up: key: below the threshold = too weak to quantify, mostly under pKd 3.1 to 4; settings: plain residues with an end cap or a label only (N-terminal biotin on a linker: ado-ado)

Binder | pKd
B1 | below the threshold
B2 | below the threshold
B3 | below the threshold

target: FRMPD2_2, Q68DX3; experiment: holdup assay; set-up: key: below the threshold = too weak to quantify, mostly under pKd 3.1 to 4; settings: plain residues with an end cap or a label only (N-terminal biotin on a linker: ado-ado)
Sequence (Q68DX3 944-1038): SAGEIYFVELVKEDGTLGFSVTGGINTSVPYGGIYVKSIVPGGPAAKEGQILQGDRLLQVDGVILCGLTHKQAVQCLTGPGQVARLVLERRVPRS

Binder | pKd
B1 | below the threshold
B2 | below the threshold
B3 | below the threshold

target: T5, HTRA3, P83110; experiment: holdup assay; set-up: key: below the threshold = too weak to quantify, mostly under pKd 3.1 to 4; settings: plain residues with an end cap or a label only (N-terminal biotin on a linker: ado-ado)

Binder | pKd
B1 | below the threshold
B2 | below the threshold
B3 | below the threshold

target: GRIP2_6, Q9C0E4; experiment: holdup assay; set-up: key: below the threshold = too weak to quantify, mostly under pKd 3.1 to 4; settings: plain residues with an end cap or a label only (N-terminal biotin on a linker: ado-ado)
Sequence (Q9C0E4 648-740): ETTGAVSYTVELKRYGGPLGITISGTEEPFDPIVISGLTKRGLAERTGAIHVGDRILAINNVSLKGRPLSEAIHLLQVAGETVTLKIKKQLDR

Binder | pKd
B1 | below the threshold
B2 | below the threshold
B3 | below the threshold

target: T6, SNTB1, Q13884; experiment: holdup assay; set-up: key: below the threshold = too weak to quantify, mostly under pKd 3.1 to 4; settings: plain residues with an end cap or a label only (N-terminal biotin on a linker: ado-ado)

Binder | pKd
B1 | below the threshold
B2 | below the threshold
B3 | below the threshold

target: DLG2_3, Q15700; experiment: holdup assay; set-up: key: below the threshold = too weak to quantify, mostly under pKd 3.1 to 4; settings: plain residues with an end cap or a label only (N-terminal biotin on a linker: ado-ado)

Binder | pKd
B2 | below the threshold
B3 | 3.74

target: IL16_1, Q14005; experiment: holdup assay; set-up: key: below the threshold = too weak to quantify, mostly under pKd 3.1 to 4; settings: plain residues with an end cap or a label only (N-terminal biotin on a linker: ado-ado)
Sequence (Q14005 210-306): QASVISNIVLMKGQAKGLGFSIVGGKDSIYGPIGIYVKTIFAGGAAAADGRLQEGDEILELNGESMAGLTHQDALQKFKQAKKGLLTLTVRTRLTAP

Binder | pKd
B1 | below the threshold
B2 | below the threshold
B3 | below the threshold

target: T7, ARHGAP21, Q5T5U3; experiment: holdup assay; set-up: key: below the threshold = too weak to quantify, mostly under pKd 3.1 to 4; settings: plain residues with an end cap or a label only (N-terminal biotin on a linker: ado-ado)

Binder | pKd
B1 | below the threshold
B2 | below the threshold
B3 | below the threshold

target: T8, RHPN1, Q8TCX5; experiment: holdup assay; set-up: key: below the threshold = too weak to quantify, mostly under pKd 3.1 to 4; settings: plain residues with an end cap or a label only (N-terminal biotin on a linker: ado-ado)

Binder | pKd
B1 | below the threshold
B2 | below the threshold
B3 | 4.03

target: T9, MPDZ_5, O75970; experiment: holdup assay; set-up: key: below the threshold = too weak to quantify, mostly under pKd 3.1 to 4; settings: plain residues with an end cap or a label only (N-terminal biotin on a linker: ado-ado)

Binder | pKd
B1 | below the threshold
B2 | below the threshold
B3 | below the threshold

target: GORASP2, Q9H8Y8; experiment: holdup assay; set-up: key: below the threshold = too weak to quantify, mostly under pKd 3.1 to 4; settings: plain residues with an end cap or a label only (N-terminal biotin on a linker: ado-ado)

Binder | pKd
B1 | below the threshold
B2 | below the threshold
B3 | below the threshold

target: NHERF4_4, Q86UT5; experiment: holdup assay; set-up: key: below the threshold = too weak to quantify, mostly under pKd 3.1 to 4; settings: plain residues with an end cap or a label only (N-terminal biotin on a linker: ado-ado)
Sequence (Q86UT5 464-550): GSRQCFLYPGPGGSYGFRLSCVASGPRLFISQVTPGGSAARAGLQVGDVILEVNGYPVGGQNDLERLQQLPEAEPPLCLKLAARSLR

Binder | pKd
B2 | below the threshold
B3 | below the threshold

target: T10, MPDZ_10, O75970; experiment: holdup assay; set-up: key: below the threshold = too weak to quantify, mostly under pKd 3.1 to 4; settings: plain residues with an end cap or a label only (N-terminal biotin on a linker: ado-ado)

Binder | pKd
B1 | below the threshold
B2 | below the threshold
B3 | below the threshold

target: Inadl_3, Q8NI35; experiment: holdup assay; set-up: key: below the threshold = too weak to quantify, mostly under pKd 3.1 to 4; settings: plain residues with an end cap or a label only (N-terminal biotin on a linker: ado-ado)
Sequence (Q8NI35 359-469): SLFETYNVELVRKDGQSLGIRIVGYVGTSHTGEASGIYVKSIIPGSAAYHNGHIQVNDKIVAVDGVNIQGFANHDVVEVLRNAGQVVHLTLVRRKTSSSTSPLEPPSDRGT

Binder | pKd
B1 | below the threshold
B2 | below the threshold
B3 | below the threshold

target: T11, PDZRN3_1, Q9UPQ7; experiment: holdup assay; set-up: key: below the threshold = too weak to quantify, mostly under pKd 3.1 to 4; settings: plain residues with an end cap or a label only (N-terminal biotin on a linker: ado-ado)

Binder | pKd
B1 | below the threshold
B2 | below the threshold
B3 | below the threshold

target: GORASP1, Q9BQQ3; experiment: holdup assay; set-up: key: below the threshold = too weak to quantify, mostly under pKd 3.1 to 4; settings: plain residues with an end cap or a label only (N-terminal biotin on a linker: ado-ado)
Sequence (Q9BQQ3 1-208): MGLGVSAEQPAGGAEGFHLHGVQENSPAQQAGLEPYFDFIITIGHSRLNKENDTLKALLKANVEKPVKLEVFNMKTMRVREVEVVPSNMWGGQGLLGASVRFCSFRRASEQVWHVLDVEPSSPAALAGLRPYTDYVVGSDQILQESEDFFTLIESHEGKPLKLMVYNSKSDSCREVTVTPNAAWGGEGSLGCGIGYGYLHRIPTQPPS

Binder | pKd
B1 | below the threshold
B2 | below the threshold
B3 | below the threshold
